Data published in article PMC7293020.
One block for each binder: values may come before it.

Columns and labels:
EcSSB = EcSSB (Escherichia coli, UniProt P0AGE0 1-178); assay: MST
[1] = molecular target: EcSSB and the SSB-IDL fusions; assay: ITC

Chain of EcSSB (P0AGE0 whole entry, the tested form may be a part): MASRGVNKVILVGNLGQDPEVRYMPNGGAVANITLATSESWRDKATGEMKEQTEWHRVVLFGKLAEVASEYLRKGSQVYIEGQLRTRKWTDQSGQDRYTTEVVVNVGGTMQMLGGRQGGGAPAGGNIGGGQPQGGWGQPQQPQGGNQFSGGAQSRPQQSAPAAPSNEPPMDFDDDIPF

Binder: TTTTTTTTTTTTTTTTTTTTTTTTTTTTTTTTTTT (ssDNA) [Cy5-dT35]
Kd (EcSSB): 1.23 ± 0.29 nM

Kd [1]: 4460 to 5780 nM
B1: Escherichia coli exonuclease I (ExoI) (enzyme)
chain: MMNDGKQQSTFLFHDYETFGTHPALDRPAQFAAIRTDSEFNVIGEPEVFYCKPADDYLPQPGAVLITGITPQEARAKGENEAAFAARIHSLFTVPKTCILGYNNVRFDDEVTRNIFYRNFYDPYAWSWQHDNSRWDLLDVMRACYALRPEGINWPENDDGLPSFRLEHLTKANGIEHSNAHDAMADVYATIAMAKLVKTRQPRLFDYLFTHRNKHKLMALIDVPQMKPLVHVSGMFGAWRGNTSWVAPLAWHPENRNAVIMVDLAGDISPLLELDSDTLRERLYTAKTDLGDNAAVPVKLVHINKCPVLAQANTLRPEDADRLGINRQHCLDNLKILRENPQVREKVVAIFAEAEPFTPSDNVDAQLYNGFFSDADRAAMKIVLETEPRNLPALDITFVDKRIEKLLFNYRARNFPGTLDYAEQQRWLEHRRQVFTPEFLQGYADELQMLVQQYADDKEKVALLKALWQYAEEIV
